Results taken from patent US20100291188A1, “Periostin Inhibitory Compositions for Myocardial Regeneration, Methods of Delivery, and Methods of Using Same” (MUSC FOUNDATION FOR RESEARCH DEVELOPMENT, priority 2008, published 2010).
Entries after “also recorded” stand apart in the source; their conditions may differ.

Legend:
[1] = test system: Mesenchyme from periostin null mice; test: Hanging drop culture of periostin null mesenchyme with purified periostin protein, Western analysis for collagen I; format: cell-based, mouse; conditions: 7 days, purified periostin protein 10 µg/ml vs PBS
Procedure: FIG. C-4: Periostin regulates collagen I synthesis. Mesenchyme from periostin null mice were placed in hanging drop cultures and incubated with either purified periostin protein (10 µg/ml) or PBS. Mesenchyme from wild-type mice were used as control tissues. After 7 days, tissues were analyzed for periostin and collagen expression by Western analysis. […] Actin is used for protein normalization (B) Graphical representation of Western analyses presented in panel A obtained from densitometric analyses using NIH image software. Values obtained were compared against wild-type values (baseline) and represented as relative percent change. * denotes p<0.05
To further determine the potential for periostin to affect fibroblast differentiation, we compared mesenchymal cells isolated from periostin null and wild-type mice, in addition to performing “rescue” experiments. For this study, we isolated atrioventricular mesenchyme from E12.5 periostin null and wild-type mice and placed them in hanging drop cultures for 7 days. In addition, purified protein was added to a subset of the hanging drops to determine the ability to rescue any defects observed in marker expression. After 7 days, the hanging drops were collected, lysed and Western analyses were performed for the fibroblast markers collagen I[…]I, and I[…]2. […]

wild-type fibroblast = test: Fibroblast migration on periostin and collagen coated dishes; format: cell-based; conditions: varying amounts of periostin and collagen coated on dishes
Procedure: FIG. D-2: Varying amounts of periostin and collagen coated dishes were assayed for their ability to promote wild-type fibroblast migration.
A final additional approach to be considered for this aim involves alternative migration assays. Scratch assays are a standard two-dimensional in vitro “wounding” assay whereby a small scratch is introduced into a confluent monolayer of cells and the time the cells take to invade and fill in the empty area provides a measure of migration^78. Thus, these assays will be employed to assess the 2-dimensional migratory capabilities of the “unidentified cells”. The time it takes for “unidentified” cells to fill the gap will be compared to that of wild-type cardiac fibroblasts. Preliminary data on fibroblasts has been previously performed and serves as a benchmark for comparison (FIG. D-2). This 2-D culture assay will serve as a nice complement to the 3-D migration and invasion assay proposed in Experiment 2.

B1: purified periostin protein: purified periostin protein, 90 kDa secreted matricellular protein; added to culture medium or coated on dishes (protein, UniProt Q15063 22-836, looked up)
Periostin: NNHYDKILAHSRIRGRDQGPNVCALQQILGTKKKYFSTCKNWYKKSICGQKTTVLYECCPGYMRMEGMKGCPAVLPIDHVYGTLGIVGATTTQRYSDASKLREEIEGKGSFTYFAPSNEAWDNLDSDIRRGLESNVNVELLNALHSHMINKRMLTKDLKNGMIIPSMYNNLGLFINHYPNGVVTVNCARIIHGNQIATNGVVHVIDRVLTQIGTSIQDFIEAEDDLSSFRAAAITSDILEALGRDGHFTLFAPTNEAFEKLPRGVLERIMGDKVASEALMKYHILNTLQCSESIMGGAVFETLEGNTIEIGCDGDSITVNGIKMVNKKDIVTNNGVIHLIDQVLIPDSAKQVIELAGKQQTTFTDLVAQLGLASALRPDGEYTLLAPVNNAFSDDTLSMDQRLLKLILQNHILKVKVGLNELYNGQILETIGGKQLRVFVYRTAVCIENSCMEKGSKQGRNGAIHIFREIIKPAEKSLHEKLKQDKRFSTFLSLLEAADLKELLTQPGDWTLFVPTNDAFKGMTSEEKEILIRDKNALQNIILYHLTPGVFIGKGFEPGVTNILKTTQGSKIFLKEVNDTLLVNELKSKESDIMTTNGVIHVVDKLLYPADTPVGNDQLLEILNKLIKYIQIKFVRGSTFKEIPVTVYTTKIITKVVEPKIKVIEGSLQPIIKTEGPTLTKVKIEGEPEFRLIKEGETITEVIHGEPIIKKYTKIIDGVPVEITEKETREERIITGPEIKYTRISTGGGETEETLKKLLQEEVTKVTKFIEGGDGHLFEDEEIKRLLQGDTPVRKLQANKKVQGSRRRLREGRSQ
collagen I expression (collagen Iα1 and Iα2, Western analysis) [1]: rescued; also recorded: induces expression of collagen I[…]1 and I[…]2 | collagen I expression (collagen Iα1 and Iα2, Western analysis) ([1]; listed as purified protein): reactivation of collagen isoforms | fibroblast migration (wild-type fibroblast): titrating affect of periostin in combination with collagen to stimulate migration
